Each block holds one molecule with its values, some of them ahead of it.
Key:
[1] = tested on: T1, FPMO11 (flavoprotein monooxygenase 11); experiment: NAD(P)H oxidation at […] nm, initial velocity; type: biochemical, Phanerodontia chrysosporium; conditions: apparent, 50 mM HEPES-NaOH pH 7.0, 30°C
T1 construct: full-length, C-terminal 6xHis, pET21a, E. coli BL21; FAD flavoprotein

[2] = target: T2, NahG (salicylate 1-monooxygenase) (Pseudomonas putida, UniProt P23262); experiment: NAD(P)H oxidation at […] nm, initial velocity; type: biochemical; conditions: apparent; co-substrate NADH varied, aromatic substrate not stated; 50 mM HEPES pH 8.0, 30°C
T2 construct: full-length synthetic gene, C-terminal 6xHis, pET21a, E. coli BL21
T2 sequence (P23262 2-434): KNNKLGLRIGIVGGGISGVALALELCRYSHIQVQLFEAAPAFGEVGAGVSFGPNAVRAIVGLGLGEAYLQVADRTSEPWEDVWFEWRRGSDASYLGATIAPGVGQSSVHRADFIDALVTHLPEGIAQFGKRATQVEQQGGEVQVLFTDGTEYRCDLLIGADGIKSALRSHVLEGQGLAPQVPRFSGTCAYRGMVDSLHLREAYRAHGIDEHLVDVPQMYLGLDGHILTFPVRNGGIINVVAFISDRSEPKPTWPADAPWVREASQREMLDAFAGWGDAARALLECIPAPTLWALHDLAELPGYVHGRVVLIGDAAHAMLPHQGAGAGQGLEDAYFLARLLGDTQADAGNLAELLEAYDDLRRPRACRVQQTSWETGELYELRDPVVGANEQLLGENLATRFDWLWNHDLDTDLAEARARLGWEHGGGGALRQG

[3] = tested on: T3, IDD2 (intradiol dioxygenase 2); experiment: O2 consumption, Clark electrode; Michaelis-Menten fit; type: biochemical, Phanerodontia chrysosporium; conditions: apparent; 50 mM Tris-HCl pH 8.0, air-saturated, superoxide dismutase added
T3 construct: recombinant, E. coli

[4] = tested on: T4, IDD1 (intradiol dioxygenase 1); experiment: as above; type: biochemical, Phanerodontia chrysosporium; conditions: apparent; 50 mM Tris-HCl pH 8.0, air-saturated, superoxide dismutase added
T4 construct: recombinant, E. coli

[5] = substrate: O=C(O)c1cc(O)ccc1O; experiment: purified protein; conditions: apparent, NAD(P)H co-substrate (NADH in results, NADPH in methods), 50 mM HEPES pH 8.0, 30°C
[6] = substrate: NC(=O)C1=CN([C@@H]2O[C@H](COP(=O)(O)OP(=O)(O)OC[C@H]3O[C@@H](n4cnc5c(N)ncnc54)[C@H](OP(=O)(O)O)[C@@H]3O)[C@@H](O)[C@H]2O)C=CC1; experiment: purified protein; type: biochemical, Pseudomonas putida; conditions: apparent, co-substrate NADPH varied, aromatic substrate not stated, 50 mM HEPES pH 8.0, 30°C, varied: cofactor
[7] = substrate: O=C(O)c1ccc(Cl)cc1O; experiment: purified protein; type: biochemical, Pseudomonas putida; conditions: apparent, NAD(P)H co-substrate (NADH in results, NADPH in methods), 50 mM HEPES pH 8.0, 30°C
[8] = substrate: O=C(O)c1ccc(O)cc1O; experiment: purified protein; type: biochemical, Pseudomonas putida; conditions: apparent, NAD(P)H co-substrate (NADH in results, NADPH in methods), 50 mM HEPES pH 8.0, 30°C
[9] = substrate: O=C(O)c1cccc(O)c1O; experiment: purified protein; type: biochemical, Pseudomonas putida; conditions: apparent, NAD(P)H co-substrate (NADH in results, NADPH in methods), 50 mM HEPES pH 8.0, 30°C

Molecule: NC(=O)C1=CN([C@@H]2O[C@H](COP(=O)(O)OP(=O)(O)OC[C@H]3O[C@@H](n4cnc5c(N)ncnc54)[C@H](O)[C@@H]3O)[C@@H](O)[C@H]2O)C=CC1 [NADH]
- Km [2]: 27 ± 10 µM
- Km ([1]; co-substrate NADH varied, aromatic substrate not stated): 170 ± 60 µM

Molecule: O=C(O)c1ccc(O)cc1O [2,4DHB]
- Km ([1]; NADPH co-substrate): 82 ± 9.7 µM

Molecule: Oc1ccc2ccccc2c1O [1,2DHN]
- Km [3]: 520 ± 180 µM
- Km [4]: 480 ± 18 µM

Molecule: NC(=O)C1=CN([C@@H]2O[C@H](COP(=O)(O)OP(=O)(O)OC[C@H]3O[C@@H](n4cnc5c(N)ncnc54)[C@H](OP(=O)(O)O)[C@@H]3O)[C@@H](O)[C@H]2O)C=CC1 [NADPH]
- Km ([1]; co-substrate NADPH varied, aromatic substrate not stated): 150 ± 37 µM

Molecule: O=C(O)c1cc(O)ccc1O [GA]
- Km ([1]; NADPH co-substrate): 48 ± 45 µM

Molecule: O=C(O)c1ccc(Cl)cc1O [4CSA]
- Km ([1]; NADPH co-substrate): 120 ± 28 µM

B1: NahG (salicylate 1-monooxygenase) (Pseudomonas putida) (protein)
chain: T2 sequence (P23262 2-434)
notes: full-length synthetic gene, C-terminal 6xHis, pET21a, E. coli BL21
- Km [5]: 110 ± 30 µM
- kcat [5]: 7 s⁻¹
- kcat/Km [5]: 61700 M⁻¹ s⁻¹
- Km [6]: 69 ± 17 µM
- kcat [6]: 1.33 ± 0.583 s⁻¹
- kcat/Km [6]: 20000 M⁻¹ s⁻¹
- Km [7]: 51 ± 19 µM
- kcat [7]: 0.917 ± 0.4 s⁻¹
- kcat/Km [7]: 18300 M⁻¹ s⁻¹
- Km [8]: 70 ± 15 µM
- kcat [8]: 5.17 ± 0.467 s⁻¹
- kcat/Km [8]: 73300 M⁻¹ s⁻¹
- Km [9]: 120 ± 15 µM
- kcat [9]: 5.5 ± 0.567 s⁻¹
- kcat/Km [9]: 45000 M⁻¹ s⁻¹

Other lines, results leading:

- Km ([1]; NADPH co-substrate): 290 ± 67 µM
Molecule: O=C(O)c1cccc(-c2ccccc2)c1O [2H3PB]

- Km ([1]; NADPH co-substrate): 100 ± 15 µM
Molecule: O=C(O)c1ccc2ccccc2c1O [1H2N]

- Km ([1]; NADPH co-substrate): 67 ± 1.8 µM
Molecule: O=C(O)c1cccc(O)c1O [2,3DHB]

- Km ([1]; NADPH co-substrate): 30 ± 34 µM
Molecule: O=C(O)c1ccccc1O [SA]

- Km ([1]; NADPH co-substrate): 110 ± 25 µM
Molecule: O=C(O)c1c(O)ccc2ccccc12 [2H1N]

- Km ([1]; NADPH co-substrate): 320 ± 84 µM
Molecule: O=C(O)c1c(O)cccc1-c1ccccc1 [2H6PB]
